For this assay, the target named is 2-azido-ATP (2-N3-ATP-biotin-long chain-hydrazone). Description: photoaffinity labeling with 2-azido-ATP. Particulars: 2.0 μg of full-length AsphyA protein (∼0.16 μM), wild-type labeling at 100 μM set as 100%, read off a plot.
Setting [1] is: 10 µM 2-azido-ATP, parent: est. 40.
The mark [2] stands for this setting: 20 µM 2-azido-ATP, parent: est. 63.
Setting [3] is: 50 µM 2-azido-ATP, parent: est. 74.
Where [4] appears, read: 100 µM 2-azido-ATP, parent: est. 100.

As for “Avena sativa phytochrome A, wild type, full-length recombinant protein with C-terminal strep-tag K411R”, the response by setting is: under setting [1], 91%; under setting [2], 120%; under setting [3], 140%; under setting [4], 150%.
For “Avena sativa phytochrome A, wild type, full-length recombinant protein with C-terminal strep-tag T418V”, in that order: 82%, 120%, 140% and 140%.
As for “Avena sativa phytochrome A, wild type, full-length recombinant protein with C-terminal strep-tag K411E”, the response under setting [1] is 61%, the response under setting [2] turned out to be 75%, the response under setting [3] stood at 92% and the response under setting [4] worked out at 110%.

The values above are taken from paper PMC8362889.
